Values quoted from earlier work as cited in article PMC4798892.
pKd: −log10 of the molar value.

Legend:
[1] = target: Histone H3 (H3K9me3S10ph) (Homo sapiens) (UniProt P68431)
[2] = target: Histone H3 (H3K9me3) (Homo sapiens) (UniProt P68431)
[3] = target: Histone H3 (H3K4me0) (Homo sapiens) (UniProt P68431)

pKd [1]: 6.72
pKd [2]: 6.96
pKd [3]: 5.52
Substance: ATRX ADD (from UniProt P46100)
